Measurements taken from US20130045267A1, “METHODS OF USING AGENTS THAT MODULATE CLAUDIN EXPRESSION” (priority 2010, published 2013).

Test system: primary human keratinocytes (PHK)
Experiment: Trans Epithelial Electric Resistance (TEER) in PHK monolayers
Format: cell-based
Description: PHK were plated at a subconfluent density of 2.5−3×10^4 cells/filter in Transwell insert and cultured in Keratinocyte-SFM media until confluent. TEER was measured using an EVOMX voltohmmeter (World Precision Instruments, Sarasota, Fla.). The resistance of cell-free filters was subtracted from each experimental value.
PHK were plated on glass coverslips at 2-3×10^5 cells/well in a 6-well plate or at 2-3×10^4 cells/filter in Transwell insert (Costar; PET membrane, 0.4 μm pore size, 6.5 mm insert) in Keratinocyte-SFM without antibiotics. The next day after plating, cells were transfected with claudin-1 specific or control (scrambled) siRNAs (Santa Cruz) using Lipofectamine™ 2000 transfection Reagent (Invitrogen). TEER and permeability experiments were conducted 48 hours after PHK were switched to differentiation media.
TEER was measured in PHK as described above. PHK were stimulated with S. aureus-derived peptidoglycan (PGN, 0.2-20 μg/ml, n=3-7) (FIG. 19A), Malp-2 (10-1000 ng/ml, n=3) (FIG. 19B), and Pam3CSK4 a TLR1/2 ligand (0.01-20 μg/ml, n=3-6) (FIG. 19C). Data are presented by analyzing the area under the TEER curve and normalized to the mean values for the control group (media alone)*p<0.05; **p<0.01.

B1: CLDN1 siRNA: claudin-1 specific siRNA (Santa Cruz), a pool of 3 separate strands, SEQ ID NO: 10-15 (nucleic acid)
chain 1: UACAUAGGCAUAGUUCAUGNN
chain 2: CAUGAACUAUGCCUAUGUANN
chain 3: AACGUAUGCAGUUAAUUCCNN
chain 4: GGAAUUAACUGCAUACGUUNN
chain 5: UGAAGAUCUAUGUAUGUGGNN
chain 6: CCACAUACAUAGAUCUUCANN
modifications: chemistry not given here
reduction in TJ function (electrical resistance and permeability assays) (claudin-1 siRNA, PHK): ~50% | TEER (siRNA 100 nM, 48 hours after switch to differentiation media, n=4): 80.6±6.4 ohms×cm^2 | drop in TEER (siRNA 100 nM, vs scrambled siRNA): > 50%
